The supplement of paper PMC11246515
± gives the standard deviation of the averaged measurements.

Assay: total protein half-life in vivo (active degradation + dilution); higher = more stable protein
[1] = E. coli NCM3722 delta-clpP delta-lon delta-hslV, growth: N-lim chemostat, doubling time 6 h
[2] = E. coli NCM3722 delta-clpP, growth: N-lim chemostat, doubling time 6 h
[3] = E. coli NCM3722 delta-hslV, growth: N-lim chemostat, doubling time 6 h
[4] = E. coli NCM3722 delta-lon, growth: N-lim chemostat, doubling time 6 h
[5] = E. coli NCM3722 delta-smpB, growth: N-lim chemostat, doubling time 6 h
[6] = wild type E. coli NCM3722, growth: C-lim chemostat, doubling time 3 h
[7] = wild type E. coli NCM3722, growth: C-lim chemostat, doubling time 6 h
[8] = wild type E. coli NCM3722, growth: C-lim chemostat, doubling time 12 h
[9] = wild type E. coli NCM3722, growth: N-lim chemostat, doubling time 6 h
[10] = wild type E. coli NCM3722, growth: N-lim chemostat, doubling time 12 h
[11] = wild type E. coli NCM3722, growth: P-lim chemostat, doubling time 6 h
[12] = wild type E. coli NCM3722, growth: P-lim chemostat, doubling time 12 h

Sequence | total protein half-life in vivo [1] [h] | total protein half-life in vivo [2] [h] | total protein half-life in vivo [3] [h] | total protein half-life in vivo [4] [h] | total protein half-life in vivo [5] [h] | total protein half-life in vivo [6] [h] | total protein half-life in vivo [7] [h] | total protein half-life in vivo [8] [h] | total protein half-life in vivo [9] [h] | total protein half-life in vivo [10] [h] | total protein half-life in vivo [11] [h] | total protein half-life in vivo [12] [h]
MTAPSQVLKIRRPDDWHLHLRDGDMLKTVVPYTSEIYGRAIVMPNLAPPVTTVEAAVAYRQRILDAVPAGHDFTPLMTCYLTDSLDPNELERGFNEGVFTAAKLYPANATTNSSHGVTSIDAIMPVLERMEKIGMPLLVHGEVTHADIDIFDREARFIESVMEPLRQRLTALKVVFEHITTKDAADYVRDGNERLAATITPQHLMFNRNHMLVGGVRPHLYCLPILKRNIHQQALRELVASGFNRVFLGTDSAPHARHRKESSCGCAGCFNAPTALGSYATVFEEMNALQHFEAFCSVNGPQFYGLPVNDTFIELVREEQQVAESIALTDDTLVPFLAGETVRWSVKQ | 5.58 ± 0.26 | 5.17 ± 0.099 | 5.194 ± 0.04 | 5.46 ± 0.25 | 4.78 ± 0.2 | 2.85 ± 0.047 | 5.64 ± 0.76 | 8.19 ± 2.8 | 5.06 ± 0.61 | 9.47 ± 0.78 | 6.06 ± 0.17 | 13.6 ± 0.86
MTARYIAIDWGSTNLRAWLYQGDHCLESRQSEAGVTRLNGKSPAAVLAEVTTDWREEKTPVVMAGMVGSNVGWKVAPYLSVPACFSSIGEQLTSVGDNIWIIPGLCVSHDDNHNVMRGEETQLIGARALAPSSLYVMPGTHCKWVQADSQQINDFRTVMTGELHHLLLNHSLIGAGLPPQENSADAFTAGLERGLNTPAILPQLFEVRASHVLGTLPREQVSEFLSGLLIGAEVASMRDYVAHQHAITLVAGTSLTARYQQAFQAMGCDVTAVAGDTAFQAGIRSIAHAVAN | – | – | – | – | – | 3.12 ± 0.4 | – | – | – | – | 4.75 | 7.85
MTDDFAPDGQLAKAIPGFKPREPQRQMAVAVTQAIEKGQPLVVEAGTGTGKTYAYLAPALRAKKKVIISTGSKALQDQLYSRDLPTVSKALKYTGNVALLKGRSNYLCLERLEQQALAGGDLPVQILSDVILLRSWSNQTVDGDISTCVSVAEDSQAWPLVTSTNDNCLGSDCPMYKDCFVVKARKKAMDADVVVVNHHLFLADMVVKESGFGELIPEADVMIFDEAHQLPDIASQYFGQSLSSRQLLDLAKDITIAYRTELKDTQQLQKCADRLAQSAQDFRLQLGEPGYRGNLRELLANPQIQRAFLLLDDTLELCYDVAKLSLGRSALLDAAFERATLYRTRLKRLKEINQPGYSYWYECTSRHFTLALTPLSVADKFKELMAQKPGSWIFTSATLSVNDDLHHFTSRLGIEQAESLLLPSPFDYSRQALLCVLRNLPQTNQPGSARQLAAMLRPIIEANNGRCFMLCTSHAMMRDLAEQFRATMTLPVLLQGETSKGQLLQQFVSAGNALLVATSSFWEGVDVRGDTLSLVIIDKLPFTSPDDPLLKARMEDCRLRGGDPFDEVQLPDAVITLKQGVGRLIRDADDRGVLVICDNRLVMRPYGATFLASLPPAPRTRDIARAVRFLAIPSSR | 5.98 ± 0.95 | – | – | – | – | 3.37 | – | – | – | – | – | –
MTDHTMKKNPVSIPHTVWYADDIRRGEREAADVLGLTLYELMLRAGEAAFQVCRSAYPDARHWLVLCGHGNNGGDGYVVARLAKAVGIEVTLLAQESDKPLPEEAALAREAWLNAGGEIHASNIVWPESVDLIVDALLGTGLRQAPRESISQLIDHANSHPAPIVAVDIPSGLLAETGATPGAVINADHTITFIALKPGLLTGKARDVTGQLHFDSLGLDSWLAGQETKIQRFSAEQLSHWLKPRRPTSHKGDHGRLVIIGGDHGTAGAIRMTGEAALRAGAGLVRVLTRSENIAPLLTARPELMVHELTMDSLTESLEWADVVVIGPGLGQQEWGKKALQKVENFRKPMLWDADALNLLAINPDKRHNRVITPHPGEAARLLGCSVAEIESDRLHCAKRLVQRYGGVAVLKGAGTVVAAHPDALGIIDAGNAGMASGGMGDVLSGIIGALLGQKLSPYDAACAGCVAHGAAADVLAARFGTRGMLATDLFSTLQRIVNPEVTDKNHDESSNSAP | 5.24 ± 0.42 | 4.62 ± 0.52 | 4.91 ± 0.3 | 5.56 ± 0.66 | 4.42 ± 0.3 | 3.2 ± 0.32 | 6.53 ± 1.6 | 10.1 ± 3.4 | 4.25 ± 0.34 | 8.83 ± 1.5 | 5.62 ± 0.14 | 11.3 ± 0.24
MTDKLTSLRQYTTVVADTGDIAAMKLYQPQDATTNPSLILNAAQIPEYRKLIDDAVAWAKQQSNDRAQQIVDATDKLAVNIGLEILKLVPGRISTEVDARLSYDTEASIAKAKRLIKLYNDAGISNDRILIKLASTWQGIRAAEQLEKEGINCNLTLLFSFAQARACAEAGVFLISPFVGRILDWYKANTDKKEYAPAEDPGVVSVSEIYQYYKEHGYETVVMGASFRNIGEILELAGCDRLTIAPALLKELAESEGAIERKLSYTGEVKARPARITESEFLWQHNQDPMAVDKLAEGIRKFAIDQEKLEKMIGDLL [P0A870] | 5.35 ± 0.57 | 5.12 ± 0.34 | 5.35 ± 0.39 | 5.6 ± 0.23 | 5.04 ± 0.11 | 3.448 ± 0.0017 | 5.81 ± 0.19 | 11.1 ± 1.2 | 5.14 ± 0.23 | 9.23 ± 0.13 | 6.18 ± 0.083 | 13.7 ± 0.78
MTDLPDSTRWQLWIVAFGFFMQSLDTTIVNTALPSMAQSLGESPLHMHMVIVSYVLTVAVMLPASGWLADKVGVRNIFFTAIVLFTLGSLFCALSGTLNELLLARALQGVGGAMMVPVGRLTVMKIVPREQYMAAMTFVTLPGQVGPLLGPALGGLLVEYASWHWIFLINIPVGIIGAIATLLLMPNYTMQTRRFDLSGFLLLAVGMAVLTLALDGSKGTGLSPLTIAGLVAVGVVALVLYLLHARNNNRALFSLKLFRTRTFSLGLAGSFAGRIGSGMLPFMTPVFLQIGLGFSPFHAGLMMIPMVLGSMGMKRIVVQVVNRFGYRRVLVATTLGLSLVTLLFMTTALLGWYYVLPFVLFLQGMVNSTRFSSMNTLTLKDLPDNLASSGNSLLSMIMQLSMSIGVTIAGLLLGLFGSQHVSVDSGTTQTVFMYTWLSMALIIALPAFIFARVPNDTHQNVAISRRKRSAQ | – | – | – | – | – | – | – | – | – | – | – | 15.7
MTDNNTALKKAGLKVTLPRLKILEVLQEPDNHHVSAEDLYKRLIDMGEEIGLATVYRVLNQFDDAGIVTRHNFEGGKSVFELTQQHHHDHLICLDCGKVIEFSDDSIEARQREIAAKHGIRLTNHSLYLYGHCAEGDCREDEHAHEGK [P0A9A9] | 6.49 ± 0.92 | 5.31 ± 0.6 | 4.58 ± 1.7 | 6.38 ± 0.37 | 3.6 ± 0.55 | 2.35 ± 0.2 | 4.31 ± 0.14 | 8.38 ± 1.9 | 4.58 ± 0.81 | 11.3 ± 3.6 | 5.27 ± 0.16 | 11.5 ± 1.6
